From patent publication US20200339702A1 (ULTRAHUMAN THIRTEEN, published 2020) come the findings set out here.

For assay [1], the target named is T1, human ERBB3 on transiently transfected HEK-293 cells (human, UniProt P21860 20-1342).
T1 construct: also called human ERBB3+ HEK-293 cells
Briefly: flow cytometry, human ERBB3-transfected HEK-293. On the procedure:
(§1) Purified IgGs were tested in FACs for binding to human and rhesus monkey ERBB3 expressed on transiently transfected HEK-293 cells and HEK-293 wild-type cells. The IgG samples were titrated in three-fold serial dilutions starting at 500 nM to 0.008 nM. Binding of IgGs was detected with a mouse anti-human IgG conjugated to FITC. Results were analyzed by examining the Mean Fluorescence Intensity (MFI) of 10000 cells per sample in the BL-1 channel detector of a flow cytometer (Attune™ NxT Acoustic Focusing Cytometer, Invitrogen/ThermoFisher Scientific).
(§2) Antibodies to ERBB3 were analysed for concentration-dependent binding at the cell surface via flow cytometry. HEK-293 cells were transiently transfected with either human or rhesus ERBB3 full-length cDNAs. Anti-ERBB3 IgGs and an isotype control were then all tested in IgG1null format, over a concentration range of 500-0.008 nM for binding to human (FIG. 5A) and rhesus (FIG. 5B) transfected cells.

Assay [2] deals with T2, rhesus monkey ERBB3 His tag, monomeric (rhesus monkey (Macaca mulatta), UniProt P21860 20-643 (human entry), limits assumed).
T2 chain: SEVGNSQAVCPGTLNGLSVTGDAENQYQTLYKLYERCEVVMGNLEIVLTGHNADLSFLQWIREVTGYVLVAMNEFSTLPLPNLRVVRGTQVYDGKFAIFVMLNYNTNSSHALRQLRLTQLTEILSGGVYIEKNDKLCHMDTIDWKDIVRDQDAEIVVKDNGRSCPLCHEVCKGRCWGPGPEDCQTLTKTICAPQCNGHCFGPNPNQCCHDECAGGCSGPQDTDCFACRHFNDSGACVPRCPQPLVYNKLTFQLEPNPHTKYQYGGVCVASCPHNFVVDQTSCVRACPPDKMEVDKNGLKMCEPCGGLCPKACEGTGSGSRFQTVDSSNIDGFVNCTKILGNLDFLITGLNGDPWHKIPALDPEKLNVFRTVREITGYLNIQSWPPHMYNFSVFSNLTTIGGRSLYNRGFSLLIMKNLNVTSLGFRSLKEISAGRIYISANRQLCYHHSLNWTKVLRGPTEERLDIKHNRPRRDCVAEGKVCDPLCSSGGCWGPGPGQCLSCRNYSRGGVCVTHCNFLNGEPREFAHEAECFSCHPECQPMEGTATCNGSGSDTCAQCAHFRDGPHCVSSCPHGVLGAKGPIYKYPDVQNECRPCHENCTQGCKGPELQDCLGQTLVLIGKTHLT
The experiment in a line: SPR (Biacore), captured IgG, monomeric ERBB3-His analyte. The protocol: (§3) Affinity (KD) of purified IgGs was determined via SPR with antigen in-solution on a Biacore® 3000 (GE). A mouse anti-human antibody (CH1 specific) was immobilized on a CM5 Sensor Chip to a level of 2000 RU in acetate buffer at pH 4.5 using amine coupling following the Wizard instructions for two channels. One channel was used for background signal correction. The standard running buffer HBS-EP pH 7.4 was used. Regeneration was performed with a single injection of 10 μl of 10 mM Glycine at pH 1.5 at […]. IgG samples were injected for 2 minutes at 50 nM at 30 μl/min followed by an off-rate of 60 seconds. The monomeric antigen (human ERBB3 His tagged or rhesus monkey ERBB3 His tag) was injected in two fold serial dilutions from 3 nM down to 0.2 nM, for 2 minutes at 30 μl/min followed by an off-rate of 300 seconds. The obtained sensorgrams were analysed using the Biacore® 3000 evaluation (BlAevaluation) software. The KD was calculated by simultaneous fitting of the association and dissociation phases to a 1:1 Langmuir binding model.
(§4) Biacore® analyses of binding affinity were performed for all IgGs to solution-phase, monomeric human and rhesus ERBB3 proteins.

In assay [3] the target is T3, human ERBB3 His tagged, monomeric (human, UniProt P21860 20-643, biotinylated in the Alphascreen assays (sites not given)).
T3 construct: Used unbiotinylated as Biacore analyte and biotinylated in Alphascreen; treated as one molecule; also called human ERBB3-His (Acrobiosystems); biotinylated monomeric human ERBB3
Described as above. The protocol:
as §3, §4

The target of assay [4] is T4, rhesus ERBB3 on transiently transfected HEK-293 cells (rhesus monkey (Macaca mulatta), UniProt P21860 20-1342 (human entry)).
T4 construct: also called rhesus ERBB3+ HEK-293 cells
T4 chain: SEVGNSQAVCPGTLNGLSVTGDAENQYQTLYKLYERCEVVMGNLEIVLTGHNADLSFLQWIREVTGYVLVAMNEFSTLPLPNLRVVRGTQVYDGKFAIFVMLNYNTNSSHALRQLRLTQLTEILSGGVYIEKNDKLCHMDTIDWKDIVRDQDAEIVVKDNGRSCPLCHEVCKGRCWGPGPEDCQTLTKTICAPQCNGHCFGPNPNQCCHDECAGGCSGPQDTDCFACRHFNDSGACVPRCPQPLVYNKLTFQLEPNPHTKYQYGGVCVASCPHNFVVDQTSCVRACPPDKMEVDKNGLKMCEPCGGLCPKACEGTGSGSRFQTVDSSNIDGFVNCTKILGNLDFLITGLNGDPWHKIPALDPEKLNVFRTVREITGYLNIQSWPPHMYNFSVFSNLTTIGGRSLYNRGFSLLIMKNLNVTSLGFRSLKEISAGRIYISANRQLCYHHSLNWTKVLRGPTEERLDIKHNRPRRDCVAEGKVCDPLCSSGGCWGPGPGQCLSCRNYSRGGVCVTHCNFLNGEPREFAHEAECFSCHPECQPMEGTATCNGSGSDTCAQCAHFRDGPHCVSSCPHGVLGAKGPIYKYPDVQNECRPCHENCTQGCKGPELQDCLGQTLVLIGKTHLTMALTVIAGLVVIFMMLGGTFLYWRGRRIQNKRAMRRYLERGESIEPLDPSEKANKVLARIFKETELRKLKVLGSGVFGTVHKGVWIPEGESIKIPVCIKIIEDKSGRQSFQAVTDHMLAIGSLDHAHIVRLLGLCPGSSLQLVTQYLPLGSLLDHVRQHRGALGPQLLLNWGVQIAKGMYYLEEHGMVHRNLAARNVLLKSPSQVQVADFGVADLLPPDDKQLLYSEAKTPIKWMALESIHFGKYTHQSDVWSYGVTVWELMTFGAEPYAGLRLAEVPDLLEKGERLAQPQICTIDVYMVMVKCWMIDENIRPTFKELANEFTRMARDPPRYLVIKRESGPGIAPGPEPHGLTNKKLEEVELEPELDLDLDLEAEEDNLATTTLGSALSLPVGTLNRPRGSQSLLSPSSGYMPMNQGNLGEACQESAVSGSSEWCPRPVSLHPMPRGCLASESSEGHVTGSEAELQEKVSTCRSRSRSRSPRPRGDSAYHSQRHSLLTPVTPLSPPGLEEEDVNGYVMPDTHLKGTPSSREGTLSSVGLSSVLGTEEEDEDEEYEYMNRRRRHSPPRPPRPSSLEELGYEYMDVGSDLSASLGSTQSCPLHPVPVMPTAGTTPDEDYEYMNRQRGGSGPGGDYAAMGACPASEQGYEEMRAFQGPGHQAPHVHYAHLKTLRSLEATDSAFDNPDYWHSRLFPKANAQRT
Briefly: flow cytometry, rhesus ERBB3-transfected HEK-293. The protocol:
as §1, §2
(A flow cytometer gives signals particle by particle.)

B1: 15G11 IgG1null (antibody, V domains shown)
VH: QVQLVESGGGLVKPGGSLRLSCAASGFTFSDYGMSWIRQAPGKGLEWVSTISDSGSYTYYPDSVKGRFTISRDNAKNSLYLQMNSLRAEDTAVYYCARELGDYDGFDYWGQGTLVTVSS
VL: DIQMTQSPSSLSASVGDRVTITCRASQEISSYLSWYQQKPGKAPKLLIYAASSLDSGVPSRFSGSGSGTDFTLTISSLQPEDFATYYCLQYDSTPYTFGGGTKVEIK
notes: Human IgG1null (L234A, L235A, G237A) and human Ckappa
By Kd is commonly meant the free concentration of one partner at which half of the binding sites on the other are occupied at equilibrium, for simple one-to-one binding. As usually defined, the koff is the rate constant with which the complex falls apart. As a reminder, the kon is the rate constant with which the complex forms. As to B1, the “maximum MFI, fold over isotype control background” value (“maximum MFI, fold” for short) in assay [1] was over 20 fold. In assay [2], this molecule had a Kd of 330 pM, a koff of 0.0011 s⁻¹ and a kon of 3.3e+06 M⁻¹ s⁻¹. In assay [3], this molecule registered a Kd of 78 pM, a koff of 0.0012 s⁻¹ and an on-rate (kon) of 1.6e+07 M⁻¹ s⁻¹. Moreover, the “maximum MFI, fold” value in assay [4] is over 20 fold.

B2: 15D10 IgG1null (antibody, V domains shown)
VH: QVQLVESGGGLVKPGGSLRLSCAASGFTFSDYGMSWIRQAPGKGLEWVSTISDGGSYTYYADNVKGRFTISRDNAKNSLYLQMNSLRAEDTAVYYCAREWGDYDGFDFWGQGTLVTVSS
VL: DIQMTQSPSSLSASVGDRVTITCRASQSISSYLSWYQQKPGKAPKLLIYAASTLQSGVPSRFSGSGSGTDFTLTISSLQPEDFATYYCLQYDSTPLTFGGGTKVEIK
notes: as for B1
On to B2, for which the “maximum MFI, fold” value in assay [1] was over 20 fold. In assay [2], this molecule yielded a Kd of 540 pM, an off-rate constant (koff) of 0.0018 s⁻¹ and an on-rate (kon) of 3.3e+06 M⁻¹ s⁻¹. In assay [3], binding was put at a Kd of 140 pM, the off-rate (koff) turned out to be 0.0019 s⁻¹ and the on-rate constant (kon) was determined as 1.4e+07 M⁻¹ s⁻¹. Further, the “maximum MFI, fold” value in assay [4] was over 20 fold.

B3: 09H02 IgG1null (antibody, V domains shown)
VH: QVQLVESGGGLVKPGGSLRLSCAASGFTFSDYSMSWIRQAPGKGLEWVSTISDGGSYTYYPDSVKGRFTISRDNAKNSLYLQMNSLRAEDTAVYYCARELGDYDGFDYWGQGTLVTVSS
VL: DIQMTQSPSSLSASVGDRVTITCRASQSISSYLSWYQQKPGKAPKLLIYAASSLQSGVPSRFSGSGSGTDFTLTISSLQPEDFATYYCLQYDSTPLTFGGGTKVEIK
notes: Human IgG1null and human Ckappa; also called 09HO2
On to B3, for which the “maximum MFI, fold” value in assay [1] and in assay [4] was over 20 fold in each case. Moreover, the Kd in assay [2] was found to be 250 pM; in assay [3], 430 pM. Further, the koff stood at 0.0027 s⁻¹ in assay [2] and 0.0013 s⁻¹ in assay [3]. The values for the kon in assay [2] and in assay [3] were 1.1e+07 M⁻¹ s⁻¹ and 3.1e+06 M⁻¹ s⁻¹, respectively.

B4: 15D03 IgG1null (antibody, V domains shown)
VH: QVQLVESGGGLVKPGGSLRLSCAASGFTFSDYGMSWIRQAPGKGLEWVSTISDSGSYIYYADSVKGRFTISRDNAKNSLYLQMNSLRAEDTAVYYCAREWGDYDGFDHWGQGTLVTVSS
VL: DIQMTQSPSSLSASVGDRVTITCRASQEISSYLSWYQQKPGKAPKLLIYAASSLQSGVPSRFSGSGSGTDFTLTISSLQPEDFATYYCLQYDSTPLTFGGGTKVEIK
notes: Human IgG1null and human Ckappa
As to B4, the “maximum MFI, fold” value in assay [1] and in assay [4] was over 20 fold each time. Moreover, the equilibrium dissociation constant (Kd) in assay [2] and in assay [3] was 260 pM in each case. The koff in assay [2] was 0.0047 s⁻¹; in assay [3], 0.003 s⁻¹. Further, the association rate constant (kon) amounted to 1.8e+07 M⁻¹ s⁻¹ in assay [2] and 1.1e+07 M⁻¹ s⁻¹ in assay [3].

B5: 11H02 IgG1null (antibody, V domains shown)
VH: QVQLVESGGGLVKPGGSLRLSCAASGFTFSDYGMSWIRQAPGKGLEWVSTISDSGSYTYYADSVKGRFTISRDNAKNSLYLQMNSLRAEDTAVYYCAREWGDYDGFDNWGQGTLVTVSS
VL: DIQMTQSPSSLSASVGDRVTITCRASQIISSYLSWYQQKPGKAPKLLIYAASSLDSGVPSRFSGSGSGTDFTLTISSLQPEDFATYYCLQYYSTPLTFGGGTKVEIK
notes: as for B4
Regarding B5, the “maximum MFI, fold” value in assay [1] and in assay [4] was over 20 fold in each case. Besides, the dissociation constant Kd in assay [2] was determined as 2100 pM; in assay [3], 1300 pM. Further, the koff in assay [2] was 0.037 s⁻¹; in assay [3], 0.0081 s⁻¹. Further, the kon in assay [2] came out at 1.7e+07 M⁻¹ s⁻¹; in assay [3] it was 6.1e+06 M⁻¹ s⁻¹.
